Test results taken from publication PMC7954794, “Protein context shapes the specificity of SH3 domain-mediated interactions in vivo” (Nature Communications, 2021).

Tested on: Abp1 PPIs
Experiment: DHFR-PCA of Abp1 SH3-swapped baits (Fig. 2B-D, S2C, S2F);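 for Protein-protein interaction distance between Abp1 SH3-swapped baits, to ABP1: Euclidean distance between DHFR-PCA score profiles of the baits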;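 for Protein-protein interaction distance between Abp1 SH3-swapped baits, to BEM1-2: Euclidean distance between DHFR-PCA score profiles of the baits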;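 for Protein-protein interaction distance between Abp1 SH3-swapped baits, to BOI1: Euclidean distance between DHFR-PCA score profiles of the baits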;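 for Protein-protein interaction distance between Abp1 SH3-swapped baits, to BZZ1-1: Euclidean distance between DHFR-PCA score profiles of the baits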
Type: cell-based, Saccharomyces cerevisiae
In short: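 Yeast DHFR-PCA in which Abp1 baits, carrying their SH3 replaced by CRISPR–Cas9 with one of 27 yeast SH3s or human CTTN, HCLS1 or DBNL SH3s, were mated against 575 SH3-associated DHFR F[3] preys plus 40 negative controls. Four tests were run per PPI. Diploids were selected twice (48 h, 30 °C), then grown 4 days on PCA selection media.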

[1] = number of PPIs, difference, Abp1 SH3-swapped with the listed SH3, Fig2D,S2F

B1: MYO3 (protein, UniProt P36006 1-1272, looked up)
Myosin-3: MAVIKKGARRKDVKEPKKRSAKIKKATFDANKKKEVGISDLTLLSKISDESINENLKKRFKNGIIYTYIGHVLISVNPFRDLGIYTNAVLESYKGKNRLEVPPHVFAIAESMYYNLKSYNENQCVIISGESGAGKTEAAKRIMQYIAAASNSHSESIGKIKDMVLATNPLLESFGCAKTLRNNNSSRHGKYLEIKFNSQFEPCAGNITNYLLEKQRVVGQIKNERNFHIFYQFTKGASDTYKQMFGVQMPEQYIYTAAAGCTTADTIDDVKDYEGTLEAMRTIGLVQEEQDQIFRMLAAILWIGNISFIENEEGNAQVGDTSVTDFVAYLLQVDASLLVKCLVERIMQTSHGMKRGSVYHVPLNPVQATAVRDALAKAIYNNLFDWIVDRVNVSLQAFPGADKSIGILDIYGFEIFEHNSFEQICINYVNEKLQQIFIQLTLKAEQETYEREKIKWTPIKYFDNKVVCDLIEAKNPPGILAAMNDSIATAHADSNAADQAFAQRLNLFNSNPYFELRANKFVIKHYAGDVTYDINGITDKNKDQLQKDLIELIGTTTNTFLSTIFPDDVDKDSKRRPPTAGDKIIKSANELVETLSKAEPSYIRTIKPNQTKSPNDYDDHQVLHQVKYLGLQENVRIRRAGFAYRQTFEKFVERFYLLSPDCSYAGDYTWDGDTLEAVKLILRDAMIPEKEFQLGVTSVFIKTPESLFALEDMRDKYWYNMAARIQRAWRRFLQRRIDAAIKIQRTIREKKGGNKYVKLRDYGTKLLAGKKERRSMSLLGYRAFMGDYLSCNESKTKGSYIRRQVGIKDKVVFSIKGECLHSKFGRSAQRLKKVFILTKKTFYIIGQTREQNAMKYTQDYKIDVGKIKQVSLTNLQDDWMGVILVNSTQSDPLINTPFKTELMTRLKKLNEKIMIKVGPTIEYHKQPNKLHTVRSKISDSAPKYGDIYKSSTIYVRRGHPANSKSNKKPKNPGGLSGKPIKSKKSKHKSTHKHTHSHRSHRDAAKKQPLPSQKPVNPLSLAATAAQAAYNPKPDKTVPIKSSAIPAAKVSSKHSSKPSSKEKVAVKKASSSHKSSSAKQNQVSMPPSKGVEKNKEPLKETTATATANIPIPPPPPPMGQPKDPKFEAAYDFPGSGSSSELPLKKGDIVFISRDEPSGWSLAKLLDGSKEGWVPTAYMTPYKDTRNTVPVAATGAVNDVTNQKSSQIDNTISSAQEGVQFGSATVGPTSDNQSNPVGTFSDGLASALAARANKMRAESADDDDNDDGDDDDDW
Abp1 bait with swapped SH3, distance to bait with ABP1 SH3, sheet Fig2C
  Protein-protein interaction distance between Abp1 SH3-swapped baits, to ABP1: 12.85
Distance to Abp1 bait with BBC1 SH3, sheet Fig2C
  Protein-protein interaction distance between Abp1 SH3-swapped baits, to BBC1: 13.06
Distance to Abp1 bait with BEM1-1 SH3, sheet Fig2C
  Protein-protein interaction distance between Abp1 SH3-swapped baits, to BEM1-1: 17.48
Distance to Abp1 bait with BEM1-2 SH3, sheet Fig2C
  Protein-protein interaction distance between Abp1 SH3-swapped baits, to BEM1-2: 35.25
Distance to Abp1 bait with BOI1 SH3, sheet Fig2C
  Protein-protein interaction distance between Abp1 SH3-swapped baits, to BOI1: 14.63
Distance to Abp1 bait with BOI2 SH3, sheet Fig2C
  Protein-protein interaction distance between Abp1 SH3-swapped baits, to BOI2: 17.97
Distance to Abp1 bait with BUD14 SH3, sheet Fig2C
  Protein-protein interaction distance between Abp1 SH3-swapped baits, to BUD14: 20.78
Distance to Abp1 bait with BZZ1-1 SH3, sheet Fig2C
  Protein-protein interaction distance between Abp1 SH3-swapped baits, to BZZ1-1: 10.1
Distance to Abp1 bait with BZZ1-2 SH3, sheet Fig2C
  Protein-protein interaction distance between Abp1 SH3-swapped baits, to BZZ1-2: 14.12
Distance to Abp1 bait with CDC25 SH3, sheet Fig2C
  Protein-protein interaction distance between Abp1 SH3-swapped baits, to CDC25: 29.41
Distance to Abp1 bait with CTTN SH3, sheet Fig2C
  Protein-protein interaction distance between Abp1 SH3-swapped baits, to CTTN: 15.21
Distance to Abp1 bait with CYK3 SH3, sheet Fig2C
  Protein-protein interaction distance between Abp1 SH3-swapped baits, to CYK3: 30.11
Distance to Abp1 bait with DBNL SH3, sheet Fig2C
  Protein-protein interaction distance between Abp1 SH3-swapped baits, to DBNL: 10.74
Distance to Abp1 bait with FUS1 SH3, sheet Fig2C
  Protein-protein interaction distance between Abp1 SH3-swapped baits, to FUS1: 21.97
Distance to Abp1 bait with HCLS1 SH3, sheet Fig2C
  Protein-protein interaction distance between Abp1 SH3-swapped baits, to HCLS1: 11.19
Distance to Abp1 bait with HOF1 SH3, sheet Fig2C
  Protein-protein interaction distance between Abp1 SH3-swapped baits, to HOF1: 33.94
Distance to Abp1 bait with HSE1 SH3, sheet Fig2C
  Protein-protein interaction distance between Abp1 SH3-swapped baits, to HSE1: 11.17
Distance to Abp1 bait with LSB1 SH3, sheet Fig2C
  Protein-protein interaction distance between Abp1 SH3-swapped baits, to LSB1: 9.135
Distance to Abp1 bait with LSB3 SH3, sheet Fig2C
  Protein-protein interaction distance between Abp1 SH3-swapped baits, to LSB3: 9.625
Distance to Abp1 bait with MYO3 SH3, sheet Fig2C
  Protein-protein interaction distance between Abp1 SH3-swapped baits, to MYO3: 0.00
Distance to Abp1 bait with MYO5 SH3, sheet Fig2C
  Protein-protein interaction distance between Abp1 SH3-swapped baits, to MYO5: 5.861
Distance to Abp1 bait with NBP2 SH3, sheet Fig2C
  Protein-protein interaction distance between Abp1 SH3-swapped baits, to NBP2: 19.88
Distance to Abp1 bait with PEX13 SH3, sheet Fig2C
  Protein-protein interaction distance between Abp1 SH3-swapped baits, to PEX13: 8.874
Distance to Abp1 bait with PIN3 SH3, sheet Fig2C
  Protein-protein interaction distance between Abp1 SH3-swapped baits, to PIN3: 8.374
Distance to Abp1 bait with RVS167 SH3, sheet Fig2C
  Protein-protein interaction distance between Abp1 SH3-swapped baits, to RVS167: 9.049
Distance to Abp1 bait with SDC25 SH3, sheet Fig2C
  Protein-protein interaction distance between Abp1 SH3-swapped baits, to SDC25: 35.91
Distance to Abp1 bait with SHO1 SH3, sheet Fig2C
  Protein-protein interaction distance between Abp1 SH3-swapped baits, to SHO1: 10.66
Distance to Abp1 bait with SLA1-1 SH3, sheet Fig2C
  Protein-protein interaction distance between Abp1 SH3-swapped baits, to SLA1-1: 31.98
Distance to Abp1 bait with SLA1-2 SH3, sheet Fig2C
  Protein-protein interaction distance between Abp1 SH3-swapped baits, to SLA1-2: 22.64
Distance to Abp1 bait with SLA1-3 SH3, sheet Fig2C
  Protein-protein interaction distance between Abp1 SH3-swapped baits, to SLA1-3: 9.056
Distance to Abp1 bait with YSC84 SH3, sheet Fig2C
  Protein-protein interaction distance between Abp1 SH3-swapped baits, to YSC84: 9.995
[1]
  PPIs gained by Abp1 - SH3-dependent PPIs gained by Abp1: 24
  SH3-dependent PPIs - SH3-dependent PPIs gained by Abp1: 13
Number of PPIs, Abp1 SH3-swapped with the listed SH3, DHFR-PCA, Fig2D,S2F
  SH3-dependent PPIs gained by Abp1: 4
